Experimental data as given in the DeepSol protein solubility set.

Assay: soluble on expression in E. coli; label from the status in PepcDB or PDB records

Row | Sequence | soluble on expression in E. coli
1 | SNAMIRFQPITTSDVQHYKFMEELLVESFPPEEYRELEHLREYTDRIGNFHNNIIFDDDLPIGFITYWDFDEFYYVEHFATNPALRNGGYGKRTLEHLCEFLKRPIVLEVERPVEEMAKRRINFYQRHGFTLWEKDYYQPPYKEGDDFLPMYLMVHGNLDAEKDYEGIRHKLHTIVYGVKE | soluble
2 | MSIGVVLAKITAEFPDVTVSKIRYLESEGLITPQRTSTGYRRFTQDDVERLRYILVTQRDNYLPLKVIREQLEAMDSGAVTPISRGSDNAPLISPESFRTSVVTRLSDSDVAARAQVSESEVSELAEAGLIRPDSSGFFTADDVQVVSVAVQLKEFGFDVRHLKSLRNLASRHADLISRATTPVARSQSESARQRAEEMSQQLSALVVSLNATMLRSMLRDELNR | not soluble
3 | GMQMNNHIRLRKAEGKWVIRTDSAVLGETLNAIELTEGSRDPVIYFPREDVAMVMFDKSEKVTACPLKGEASYYSIVGASGTLKDAAWSYESPKEGLEAIAGYLAFAPDCTKVGQY | soluble
4 | MSKPDDPAYHWNGAELDLDAYLARIGFAGERAPTLATLRELVYRHTTAIPFENLEAVLGRPVRLDLATLQDKLVHSRRGGYCYENAGLFAAALERLGFGVTGHTGRVTMGAGGLRPATHALLRVTTADDDRVWMCDVGFGRGPLRPYELRPQPDEFTLGDWRFRLERRTGELGTDLWVLHQFGRDGWVDRYTFTTAPQYRIDFEVGNHFVSTSPRSPFTTRPFLQRFHSDRHHVLDGLTLITERPDGSADIRALTPGELPEVINELFDIELPGPDLDALTTGSWLERVAAGTP | soluble
5 | MDEVANALAVSQTMMEKMQKLEISKNYDVEKFETLLRLPARDVNTFMEKEAKKTDDEKMTDMDRRIKRIREDKTDRAARTLQKYFRKIRVKGEQNHINKRISKIPAKRRVVLLEQIRQKMGEQQPIRRFGGYQVIRAVELHKGKQKLQKDWLAKLSIDVNFHDKNLSRPNSPTHFIANSIPTLIRKKAEMKHAEKMQEIDSSIMDIYCGFQKDNLH | not soluble
6 | MGSDKIHHHHHHMEAADASRSNGSSPEARDARSPSGPSGSLENGTKADGKDAKTTNGHGGEAAEGKSLGSALKPGEGRSALFAGNEWRRPIIQFVESGDDKNSNYFSMDSMEGKRSPYAGLQLGAAKKPPVTFAEKGELRKSIFSESRKPTVSIMEPGETRRNSYPRADTGLFSRSKSGSEEVLCDSCIGNKQKAVKSCLVCQASFCELHLKPHLEGAAFRDHQLLEPIRDFEARKCPVHGKTMELFCQTDQTCICYLCMFQEHKNHSTVTVEEAKAEKETELSLQKEQLQLKIIEIEDEAEKWQKEKDRIKSFTTNEKAILEQNFRDLVRDLEKQKEEVRAALEQREQDAVDQVKVIMDALDERAKVLHEDKQTREQLHSISDSVLFLQEFGALMSNYSLPPPLPTYHVLLEGEGLGQSLGNFKDDLLNVCMRHVEKMCKADLSRNFIERNHMENGGDHRYVNNYTNSFGGEWSAPDTMKRYSMYLTPKGGVRTSYQPSSPGRFTKETTQKNFNNLYGTKGNYTSRVWEYSSSIQNSDNDLPVVQGSSSFSLKGYPSLMRSQSPKAQPQTWKSGKQTMLSHYRPFYVNKGNGIGSNEAP | not soluble
7 | MAKIALIGASGNAGSRILKELSDRGHQVTAIARNPEKIAALPNVVAKKGDVFDQAALSELLKGHDAVISSVHFTASDPATLIEAVRASGVQRYLVVGGAGSLEIAPGQRVVDLPDFPAAYKAEATKGAEFLDKLKQEKQLDWTFLSPSAEFVPGERTGKFRIGKDNLLSNEQGSRISFEDYAIALADEIEKPQHSRQRFTVGY | not soluble
8 | MNNPDLPYRQALECLSQKQYNFTEVRRLLTEAFSAGHPAAAFELAKHLMDADSPYQDREQGMEMLRIAAEQGHPYARYNLAYIQELEGAPPETLIPLYRPLAEEGLPEAQVRLMYLLYASRHFEEALEWAKTSAKNNNPHGQYLLAQYCRYGTPPDFETAHLLYRKSAAQGLPEAHWQLGLQYRFGQGTKVDTAQAVNHLRAAAQQGYIPAYTPLAELILPTAPDEAVHWFQQAAQENDPDAHAALADIYLQGKHLERNHKLALHHAEAAAAERHPEGLRILGDICRYGLGIAPDTEKARHYYRQAAEAGSLSAYQKLISDSALNHPDQYGGIKDSAIRRQRAERLYQKAQALHYGLQCAPEYAAALKLYTEAAELGHSKAQTNLGSMYYFGQGMTADYNEARKWFEKAAAKKDSMAFYNLACIHYSGHGVEPDKEKACRYLQEAINNGYGQKSVLQELLQQWQNAV | not soluble
9 | MGSDKIHHHHHHMSLEHFFRDELTYLRLQGREFAKAHPELTRFLSEQTTDPDVERLLEGFAFLTGSLRAKIEDEFPELTHGLLGMLWPNYLRPVPSMTIMQFSVHPGAIAQPAFVARGCELDSLPIDDVVCHFQTCHDAWIYPADIREIKVQSGNDLSTITLDIGLHGPLSLSDLQLDKLRFYLGGDTYTAYELYFWIASQLSHIELEVDGQRFRQEASVLKTVGFEREDALLPYPGNVYSGYRILQEYFCFPESFLFFQLAGAVWPDLPLTVTEFRLHFCFDRPLPAELKIRPDSFMFNCVPAINLFQHDSEPINLSGRQTDYPLKASYRNADSFEIFSVDKVEGWVEGNSGRSRGIPRTYQPFESFQHQIERAKGRLALYYRIRVREAINGNGFDHMLSFVRGDEQEVIDLDESISVTLTCTNRSRAAQLSVGAICVPTGNSPSFATFRNLVRPTRPLRPAMDGSLHWTLISNLSLNYVSLLRRDALVQILRTYDFPALHDKQAEQASRKRLAGIESIETTPIDRLVQGMPVRGLKSILSVRQSAFSSEGELYLFSTVLAHFFSLYASVNAFHLLEVVNIDNKERYRWPVQIGQHSMM | not soluble
10 | MAKDIKFSEEARRSMLRGVDTLANAVKVTLGPKGRNVVLEKKFGSPLITNDGVTIAKEIELEDAFENMGAKLVAEVASKTNDVAGDGTTTATVLAQAMIREGLKNVTAGANPMGLRKGIEKAVVAAVEELKTISKPIEGKSSIAQVAAISAADEEVGQLIAEAMERVGNDGVITLEESKGFTTELDVVEGMQFDRGYASPYMITDSDKMEAVLDNPYILITDKKISNIQEILPVLEQVVQQGKPLLIIAEDVEGEALATLVVNKLRGTFNVVAVKAPGFGDRRKAMLEDIAILTGGEVITEELGRDLKSATVESLGRAGKVVVTKENTTVVEGVGSTEQIEARIGQIRAQLEETTSEFDREKLQERLAKLVGGVAVIKVGAATETELKERKLRIEDALNSTRAAVEEGIVAGGGTSLMNVYTKVASIVAEGDEATGINIVLRALEEPVRQIAINAGLEGSVVVERLKGEKVGVGFNAATGEWVNMLETGIVDPAKVTRSALQNAASVAAMFLTTEAVVADKPEPNAPAMPDMGGMGMGGMGGMM | not soluble
11 | MISNDAIRRNMAVFSMSVVSKLTDLTPRQIRYYETHELIKPERTEGQKRLFSLNDLERLLEIKSLLEKGFNIKGIKQIIYDSQEHLTTDEQEIRKKMIVDATQKPIGETLPINRGDLSRFIK | not soluble
12 | MKIVVIGATGIIGKAIVAELNPRHEIISASYKNSDIQVDITSKQSIDAMYKKLNTIDAIVLATGKVHFAALKDMGEDDYKIGLTNKLMGQVNVVLAGLEYINDNGSFTLTSGILNRDPILYGSSAAMVNGALDGFIKSAALEMPRGIRINGVSPTVITEAMENYGPYFRGYEPVSAARAALAYSKSIEGAQTGQVYCVGLEHHHHHH | not soluble
13 | MSMVVDSVPDSSTFVGKTIRPVAAVSIHGIVFDGERLLAVDSKNGYLLEIDPYTNNTKLLNGQYWQEFIGATGLAIADRQLWFSSGQYVYTCNLEGPDLKPEVFAWFDDPVNGVAIWESTVYITCHKRGHIWVYGRDTRKLVATFYSPGIGVENITVRGEELWVCDSAEQSVYCLDRATGEINFSLITPFESPTGLAFYDDQAVGKATLYVAYVQQEPYVRDNPNADPNHELMYRETTFIHPLYFYNDPHQCCAFSNGYLVEMRYVEELAPLDPVDLKQVEWRMALPAVTPRQRIRKIESVGLPFSRIDDVNGQKVAVFEFDQLDLDSRAVFGWRVEMEVWGIKYRLKPSDCEHLPALPEGFADRYLVDNDNLSMETDIIIRAAAEAIGRETNLLRQMFNIRNYVYDRLSYGIKPHIDTPDLALRRGVGSCGEYVGVLLALARLNGIACRTAGRYKCPPHPLQRNLPMEPDFNHVWFEFYLPGIGWLPMESNPDDTNDGGPYPTRFFMGLAWYHAETAKDVPFEQLLSQGIPVNKQVVSIGELAINHVQFTILEELDPAAHLAHLEHHHHHH | soluble
14 | MRKLALVPIQFYRYAISPLMASHCRFYPSCSCYAYEAIDNHGLLRGGWLSIRRLGRCHPWNPGGYDPVPAVPTSRSSSMAELEHHHHHH | not soluble
15 | MGSDKIHHHHHHMKLYKLLILDIDGTLRDEVYGIPESAKHAIRLCQKNHCSVVICTGRSMGTIQDDVLSLGVDGYIAGGGNYIQYHGELLYNQSFNQRLIKEVVCLLKKREVAFSIESQEKVFMNQKAKEIFETMNQLKGTNSCINKQHIQEKITYENNIEEYKSQDIHKICLWSNEKVFDEVKDILQDKMELAQRDISSQYYEIIQKDFHKGKAIKRLQERLGVTQKETICFGDGQNDIVMFQASDVTIAMKNSHQQLKDIATSICEDIFDNGIYKELKRRNII | not soluble
16 | MGMLGLDLLKEVPGLLEEIKALPLRLDEERFRFWLQQDYPFVEALYRYQVGLLLEAPQAHRAPLVQALMATVEELDWLLLQGASPSAPVHPVRAGYIALLEEMGRLPYAYRVVFFYFLNGLFLEAWAHHVPEEGPWAELSQHWFAPEFQAVLYDLEVLARGLWEDLDPEVVRTYLRRILEAEKATWSLLL | soluble
17 | MQKPVMNPKQRIFIRGLGLPSSYVEAQKKRDEENAKN | not soluble
18 | MNSDLALLRLLQLASPGLPVGGFTYSQGLEWAVEAGWVRGVDSFAGWQREQVHDTLACLDWPVLARLYHACQAKDAEAFGHWSRFLLANRETAELRLEEQQRGAALARLLDGWQLGQAPAWRASLELTQLGGMAWLAAHWAIPLRQLALGHGFAWLEGAVMAGVKLVPFGQQAAQTLLRDLGADLPAALDQALALGDDQLGGGLPLLAIASSRHETQYTRLFRSLEHHHHHH | soluble
19 | MSLTDSKYISIKGARVNNLKNIDVNIPRNKLVVITGLSGSGKSSLAFDTLYAEGQRRYVESLSSYARQFLGRMSKPECDFIKGIPPAIAIEQKVNSRNPRSTVGTSTEIYEYLRLLYARVGKTYSPVSGEEVKKHSIEDIVNCMLSYPEGTRYTVLTQIYLHDGRTLEQQLEIDRKQGFNRLEVNGEMVRIDEYAAGKEDVVYLLVDRMTAAKSKDAISRLTDSAETAMYEGDGMCMLRFYQPDGTTRLHTFSTKFEADGMTFEEPNDQMFSFNSPIGACPVCEGFGKVIGIDEHLVVPNRSLSVYDGAIVCWRGEKMGEWREELIHNAEKFNFPIFTPYYELTDEQRRVLWEGNQYFHGINDFFKMLEENQYKIQYRVMLARYRGKTLCPKCHGTRLKPEAGYVRVGGKNISELVDLPITELQKFFDSLTLNEHDQAVARRILTEINSRIRFLIDVGLGYLTLNRLSNSLSGGESQRINLATSLGSSLVGSLYILDEPSIGLHSRDTDRLVHVLRQLQQLGNTVVVVEHDEEIIRAADYIIDIGPNAGRLGGQVVYEGDMKDLKKGSNSYTVKYLLGEETIPVPEHRRPWNNYIEIKGARENNLKGVDARFPLNVMTVVTGVSGSGKSTLVRDIFYRALKRELDECSERPGEFVSIEGDLRNLRNVEFVDQNPIGKSSRSNPVTYIKAYDEIRKLWADQPLAKQMGYTAGHFSFNNEGGRCEECKGDGTITVEMQFMADLVLECESCHGKRFKADTLEVKFQDKNIYDILEMTVNQAIEFFTEHGQKKVVKKLIPLQDVGLGYIKLGQSSSTLSGGENQRVKLAYYLSQEKADPTLFIFDEPTTGLHFHDIRKLLDAFDALIRRGHSIVIIEHNMDVIKCADYVIDLGPEGGDKGGNIVATGTPEEVAACAASYTGQFLQEKLNHLEGHHHHHH | soluble
